Measured values as given in patent publication US20230241257A1, “BIOTIN-MODIFIED DIMER AND USE THEREOF” (THE UNIVERSITY OF TOKYO, priority 2020, published 2023).

T1: Recombinant Human CEACAM-5/CD66e Protein, CF (R & D SYSTEMS) (human, UniProt P06731 35-685)
T1 construct: Bought recombinant protein, immobilized on a CM5 chip by amine coupling (279 RU); also called carcinoembryonic antigen
T1 sequence (looked up): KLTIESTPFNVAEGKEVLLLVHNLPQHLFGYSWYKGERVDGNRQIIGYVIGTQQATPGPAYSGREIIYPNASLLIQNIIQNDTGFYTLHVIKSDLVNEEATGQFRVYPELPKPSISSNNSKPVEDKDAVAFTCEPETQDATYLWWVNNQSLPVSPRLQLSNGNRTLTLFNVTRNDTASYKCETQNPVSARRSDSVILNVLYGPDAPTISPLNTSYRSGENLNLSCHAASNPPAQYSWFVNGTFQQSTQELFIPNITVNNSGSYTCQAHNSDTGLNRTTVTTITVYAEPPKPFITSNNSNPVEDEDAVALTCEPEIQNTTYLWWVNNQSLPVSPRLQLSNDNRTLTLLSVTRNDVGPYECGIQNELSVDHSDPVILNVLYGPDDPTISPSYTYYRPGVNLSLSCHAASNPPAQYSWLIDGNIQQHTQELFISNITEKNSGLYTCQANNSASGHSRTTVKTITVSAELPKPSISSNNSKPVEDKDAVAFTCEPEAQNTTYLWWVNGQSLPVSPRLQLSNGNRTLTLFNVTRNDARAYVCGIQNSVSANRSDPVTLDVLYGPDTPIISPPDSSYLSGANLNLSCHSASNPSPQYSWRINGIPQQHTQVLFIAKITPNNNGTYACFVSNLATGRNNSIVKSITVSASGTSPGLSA

T2: Recombinant Human CEACAM-5/CD66e Protein (Homo sapiens, UniProt P06731)
T2 construct: purchased R & D SYSTEMS
T2 sequence (P06731 35-676): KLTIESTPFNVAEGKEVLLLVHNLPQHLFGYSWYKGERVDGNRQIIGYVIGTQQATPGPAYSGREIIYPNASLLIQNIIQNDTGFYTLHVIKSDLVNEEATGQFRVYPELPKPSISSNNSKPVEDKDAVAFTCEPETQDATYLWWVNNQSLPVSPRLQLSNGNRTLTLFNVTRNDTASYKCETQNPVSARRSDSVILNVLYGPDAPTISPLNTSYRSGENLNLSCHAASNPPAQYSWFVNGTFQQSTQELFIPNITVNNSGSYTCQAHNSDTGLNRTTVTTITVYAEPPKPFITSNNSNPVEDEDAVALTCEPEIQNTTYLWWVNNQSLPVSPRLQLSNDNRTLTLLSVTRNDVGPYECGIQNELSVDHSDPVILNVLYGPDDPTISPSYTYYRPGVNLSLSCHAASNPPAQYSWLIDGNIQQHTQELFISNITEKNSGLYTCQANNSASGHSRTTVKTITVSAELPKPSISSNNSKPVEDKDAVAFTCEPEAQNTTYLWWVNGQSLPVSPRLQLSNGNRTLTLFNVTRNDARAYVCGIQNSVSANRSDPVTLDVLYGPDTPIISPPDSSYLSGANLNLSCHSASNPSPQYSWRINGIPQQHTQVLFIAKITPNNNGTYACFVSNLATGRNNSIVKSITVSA

B1: CEA-V2122 protein (scFv-type anti-CEACAM5 antibody fused to mutant streptavidin V2122 via the linker GGGGSGGGG) (scFv)
scFv: QVKLEQSGAEVVKPGASVKLSCKASGFNIKDSYMHWLRQGPGQRLEWIGWIDPENGDTEYAPKFQGKATFTTDTSANTAYLGLSSLRPEDTAVYYCNEGTPTGPYYFDYWGQGTLVTVSSGGGGSGGGGSGGGGSENVLTQSPSSMSVSVGDRVNIACSASSSVPYMHWLQQKPGKSPKLLIYLTSNLASGVPSRFSGSGSGTDYSLTISSVQPEDAATYYCQQRSSYPLTFGGGTKLEIKGGGGSGGGGAEAGITGTWSDQLGDTFIVTAGADGALTGTYENAVGGAESRYVLTGRYDSAPATDGSGTALGWTVAWKNNSKNAHSATTWSGQYVGGADAKINTQWLLTSGTTNANAWKSTLVGHDTFTKVKPSAASHHHHHH
notes: It was secreted and purified from the culture supernatant through the His tag and Protein L. The purified product is mainly a tetramer of about 150 kDa; also called Cupid-scFv antibody; CEA-Cupid
B2: CEA-V2122: scFv-type anti-CEACAM5 antibody bound to mutant streptavidin V2122 via amino acid linker GGGGSGGGG (SEQ ID NO: 3) (protein)
scFv: QVKLEQSGAEVVKPGASVKLSCKASGFNIKDSYMHWLRQGPGQRLEWIGWIDPENGDTEYAPKFQGKATFTTDTSANTAYLGLSSLRPEDTAVYYCNEGTPTGPYYFDYWGQGTLVTVSSGGGGSGGGGSGGGGSENVLTQSPSSMSVSVGDRVNIACSASSSVPYMHWLQQKPGKSPKLLIYLTSNLASGVPSRFSGSGSGTDYSLTISSVQPEDAATYYCQQRSSYPLTFGGGTKLEIKGGGGSGGGGAEAGITGTWSDQLGDTFIVTAGADGALTGTYENAVGGAESRYVLTGRYDSAPATDGSGTALGWTVAWKNNSKNAHSATTWSGQYVGGADAKINTQWLLTSGTTNANAWKSTLVGHDTFTKVKPSAASHHHHHH

Tests used:
[1] = target: T1, Recombinant Human CEACAM-5/CD66e …; assay: SPR, Biacore T200, CEACAM5 immobilized on CM5, CEA-V2122 as analyte, single-cycle kinetics, bivalent analysis fit (KD = kd1/ka1)
Protocol: (§1) The affinity of CEA-V2122 for the antigen CEACAM5 was evaluated using a surface plasmon resonance (SPR) measuring device, Biacore T200 (GE Healthcare Life Sciences). Specifically, Recombinant Human CEACAM-5/CD66e Protein, CF (R & D SYSTEMS) was immobilized on Sensor Chip CM5 (GE Healthcare Life Sciences) using an amine-coupling kit (GE Healthcare Life Sciences). The final amount of the ligand immobilized was 279 RU. Moreover, about the purified CEA-V2122, two-fold serial dilutions from 1E-08 M to 6.25E-10 M were prepared as analytes. Regarding interaction analysis, data were obtained by single-cycle kinetics analysis.

[2] = target: T2, Recombinant Human CEACAM-5/CD66e Protein; assay: SPR affinity of CEA-V2122 for the antigen CEACAM5 (Biacore T200); assay type: binding
Protocol: as §1, with “analysis. Using Biacore T200 Evaluation Software, version 2.0, the obtained data were subjected to curve fitting in a bivalent analysis mode, and the following values were obtained: ka1=3.208E+5, and kd1=3.461E−7.” for “analysis.”

[3] = single-cycle kinetics, bivalent analysis mode

Molecule | Kd [1] [pM] | KD=kd1/ka1 ([2]; bivalent analysis) | ka1 [2, 3] | kd1 [2, 3]
B1 | 1.08 | – | – | –
B2 | – | 1.078E−12 | 3.208E+5 | 3.461E−7
